The data set relates to MS2 coat protein. The data set can be described thus: apparent KD of MS2 coat protein; designed switch direction (-1 OFF switch, 1 ON switch): -1; higher = weaker reporter binding. In outline:
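Designed RNA switches with common flanks were transcribed on Illumina chips by stalled E. coli RNA polymerase and titrated with SNAP-549-labelled MS2 coat protein, from 0.7 or 1.5 nM doubling to 3 µM, in Tris-HCl pH 7.5 buffer with KCl, MgCl2, BSA, DTT, tRNA and Tween-20. Steps lasted 0.8–1.5 h (lowest) to 10–20 min (highest). Titrations ran without input, with 200 uM small-molecule ligand, or with an oligonucleotide input. Normalised cluster fluorescence was curve-fitted, and apparent KD is the per-design median over clusters.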

The mark [1] stands for this setting: Eterna round: R95, input ligand: microRNA oligo, concentration not stated.
Setting [2] is: Eterna round: R95, input ligand: FMN 200 uM.
[3] abbreviates: Eterna round: R95, input ligand: none.
Setting [4] is: input ligand: microRNA oligo, concentration not stated.

On to “CAUACAGUAGUCAGGAUAUUGGAAGAGACACGGAACGAGAAGGGACAUGAGGAUCACCCAUGUAUACUGUAAAG [EX-4 Malc #4] (puzzle: Brourd's mod of Exclusion 4)”, for which the “apparent KD of MS2 coat protein” value under setting [1] turned out to be 23.8 nM.

With “CAUCACUGUGUCAGGAUAUCAUUUGGACGUCUAAGUGAGAAGGGACAUGAGGAUCACCCAUGUGGAGCUGGCCA [Eternabot (L1) Solution 63] (Eterna round: R97, puzzle: Brourd's mod of Exclusion 4)”, the “apparent KD of MS2 coat protein” value stood at 73.5 nM (input ligand: FMN 200 uM) and 41.8 nM (input ligand: none).

With “CAUCCACAUGAGGAUCACCCAUGUCAGGAUAUCUAUCAUAGCAUCGAAAGAUGCGGGUAGAGAAGGGACAAACC [ChP Ext 10-04-2015 #9] (puzzle: Exclusion 1)”, the “apparent KD of MS2 coat protein” value under setting [1] was determined as 12.4 nM.

On to “CAUCCAGCUUCCCUUCAAAACAUGAGGAUCACCCAUGUUUUUGUUUUUACAAGCUUUUUGCUUUUUGCUCGUCUUGU [A Humble Attempt... Again] (puzzle: Sensor v3, turn-off variant 1)”, for which the “apparent KD of MS2 coat protein” value runs as follows: under setting [2], 20.5 nM; under setting [1], 16 nM; under setting [3], 21.5 nM.

For the sequence “CAUGAUUGACGAGGAUAUUGUACUACAUCACGACGAGAAGGCGUCUGUCACAUGAGGAUCACCCAUGUGAGACUGGUGAAUGAG [Ex NG1 #80] (Eterna round: R96, puzzle: Exclusion NG 1)”, the “apparent KD of MS2 coat protein” value is, setting by setting: (input ligand: FMN 200 uM) 31.6 nM; under setting [4], 16.7 nM; (input ligand: none) 26.2 nM.

Consider “CAUGAUUGACGAGGAUAUUGUUCUACAUGGCGACGAGAAGGCGUCUGUCACAUGAGGAUCACCCAUGUGAGUCUGGUGAAUGAG [Ex NG1 #83] (Eterna round: R96, puzzle: Exclusion NG 1)”, for which the “apparent KD of MS2 coat protein” value under setting [4] was 25.7 nM.

As to “CAUGAUUGGGAAGGAUAUUGACCUAGUUAGCGCCGAGAAGGUCCCUGUCACAUGAGGAUCACCCAUGUGAAUCUGGUGAAAGAG [Ex NG1 #93] (Eterna round: R96, puzzle: Exclusion NG 1)”, the “apparent KD of MS2 coat protein” value is, setting by setting: (input ligand: FMN 200 uM) 26.1 nM; under setting [4], 16.6 nM; (input ligand: none) 22.9 nM.

Take “CAUGGAACGUAGGAUAUCUCGCGGCUAGGCUGCAGAGAAGGACGCACAUGAGGAUCACCCAUGUGUGAUCCAAA [Tibiataus] (puzzle: Exclusion 6)”: the “apparent KD of MS2 coat protein” value under setting [2] was determined as 27.6 nM, the “apparent KD of MS2 coat protein” value under setting [1] was determined as 17 nM and the “apparent KD of MS2 coat protein” value under setting [3] was found to be 21.9 nM.

As for “CAUGUAAGUCGUUGAUCCAACAUGAGGAUCACCCAUGUCACUUUAGCUUUUUGCUCGUCUUAUCCUCCUUUGUUCAC [JR_STOV1_v2_Sub0100] (Eterna round: R97, puzzle: Sensor, turn-off variant 1)”, the “apparent KD of MS2 coat protein” value by setting is: (input ligand: FMN 200 uM) 482 nM; (input ligand: none) 1060 nM.

In the case of “CAUGUCUGAGGAUAUCGUUUUUUGUACAUGAGGAUCACCCAUGUCCUAUUUUUUAUAUUACGAGAAGGCAGUGGAU [JR_E5_Sub091] (Eterna round: R96, puzzle: Exclusion 5)”, the “apparent KD of MS2 coat protein” value is 27.9 nM (input ligand: FMN 200 uM), 27.8 nM under setting [4] and 39.2 nM (input ligand: none).

“CAUGUCUGAGGAUAUCGUUUUUUGUACAUGAGGAUCACCCAUGUCCUAUUUUUUAUAUUACGAGAAGGCAGUGGAU [JR_E5_Sub091] (puzzle: Exclusion 5)”: the “apparent KD of MS2 coat protein” value under setting [1] came to 34.9 nM.

For the sequence “CCAACCAGAGGAUAUGCGCAUAGAUCAGACUUUGUUUCUGAACAUGAGGAUCACCCAUGUAGAAGGCUGUAACC [Ex2 #86] (Eterna round: R97, puzzle: Exclusion 2)”, the “apparent KD of MS2 coat protein” value is, setting by setting: (input ligand: FMN 200 uM) 26 nM; (input ligand: none) 27.3 nM.

In the case of “CCAAGCUUUUUCAUUAACAACAUGAGGAUCACCCAUGUUUAAGCUAUUACUUUUGGGCUCUUUAGUGCUCGUCUUAU [JR_STOV1_Sub040] (Eterna round: R97, puzzle: Sensor, turn-off variant 1)”, the “apparent KD of MS2 coat protein” value by setting is: (input ligand: FMN 200 uM) 14.4 nM; (input ligand: none) 13.9 nM.

In the case of “CCAAUGUAAGGAUAUGACAAUGGUAUCUUCGGAUACCAUUGUCAGAAGGUACAUGAGGAUCACCCAUGUAUAAA [Ex4-3: 10] (puzzle: Exclusion 4)”, the “apparent KD of MS2 coat protein” value under setting [1] turned out to be 17.3 nM.

Consider “CCACGACAUGAGGAUCACCCAUGUGAGGAUAUGGCCAGUAUGGCGUGAGCUGAAUCAAUCAGAAGGCGCGUGGG [salish99_ex1_r4_056] (Eterna round: R97, puzzle: Exclusion 1)”, for which the “apparent KD of MS2 coat protein” value (input ligand: FMN 200 uM) came to 276 nM and the “apparent KD of MS2 coat protein” value (input ligand: none) is 339 nM.

Take “CCACUGUCAGGAUAUCGUGCAUAACGUUUACAUUUUAUGUGCGAGAAGGGACAUGAGGAUCACCCAUGUAAACG [Omei Ex4 A28PK2] (Eterna round: R97, puzzle: Exclusion 4)”: the “apparent KD of MS2 coat protein” value reads like this: (input ligand: FMN 200 uM) 206 nM; (input ligand: none) 808 nM.

For the sequence “CCAGCGAGUGUGAGGAUAUGCUGGUCCUUGGAUCAGCAGAAGGCACAUGAGGAUCACCCAUGUGAGGACGUUGG [JL bmx4 3.31] (Eterna round: R96, puzzle: Brourd's mod of Exclusion 4)”, the “apparent KD of MS2 coat protein” value is 294 nM (input ligand: FMN 200 uM), 27.9 nM under setting [4] and 31.9 nM (input ligand: none).

Regarding “CCAGCGAGUGUGAGGAUAUGCUGGUCCUUGGAUCAGCAGAAGGCACAUGAGGAUCACCCAUGUGAGGACGUUGG [JL bmx4 3.31] (puzzle: Brourd's mod of Exclusion 4)”, the “apparent KD of MS2 coat protein” value under setting [1] amounted to 23.9 nM.

As to “CCAGCGUAUGUUAGGAUAUGCUGGUCGAAAGAUCAGCAGAAGGAACAUGAGGAUCACCCAUGUGGAAAAGUUGG [Mod of JL 25 - Jieux - Brourd's mod of Exclusion 4] (Eterna round: R97, puzzle: Brourd's mod of Exclusion 4)”, the “apparent KD of MS2 coat protein” value (input ligand: FMN 200 uM) is 184 nM and the “apparent KD of MS2 coat protein” value (input ligand: none) turned out to be 30.4 nM.

For “CCAGGCGUCUUUGCUCGUCUUAUUUGGAGAUGACUGUUAACAUGAGGAUCACCCAUGUGUGUGGGAGCGUUGCAGUC [JR_SV3TOV2_Sub021] (puzzle: Sensor v3, turn-off variant 2)”, the “apparent KD of MS2 coat protein” value turned out to be 580 nM under setting [2], 431 nM under setting [1] and 885 nM under setting [3].

For “CCAUAGUCAGGAUAUACAUGAGGAUCACCCAUGUAAAAUUUUAAUUUAAUUUGAAGGUGUAGAAGGGACCAACC [Ex3 #30] (Eterna round: R97, puzzle: Exclusion 3)”, the “apparent KD of MS2 coat protein” value was determined as 26.3 nM (input ligand: FMN 200 uM) and 33.2 nM (input ligand: none).

On to “CCAUAUUCGAAGGAUAUGCAAUUGGAUAGAUUCGCAGAAGGUCGAACAUGAGGAUCACCCAUGUCCCUGGUGAA [Eternabot (L2) Solution 89] (Eterna round: R97, puzzle: Exclusion 6)”, for which the “apparent KD of MS2 coat protein” value reads like this: (input ligand: FMN 200 uM) 903 nM; (input ligand: none) 133 nM.

Turning to “CCAUGUUAGCAGGAUAUGCAAUAAAUCUUUUAUGCAGAAGGGCUUACAUGAGGAUCACCCAUGUAUUAAGUCAA [JR_E6_Sub078] (puzzle: Exclusion 6)”, the “apparent KD of MS2 coat protein” value by setting is: under setting [2], 118 nM; under setting [1], 36 nM; under setting [3], 49.9 nM.

For “CCCACGUCAGGAUAUCUAAAGGUCCGAAAUAACGGGACUGCAGAGAAGGGACAUGAGGAUCACCCAUGUCCUCG [EX4 C.21] (Eterna round: R97, puzzle: Exclusion 4)”, the “apparent KD of MS2 coat protein” value by setting is: (input ligand: FMN 200 uM) 27 nM; (input ligand: none) 18 nM.

For the origin of these results see the supplement of paper PMC9170038.
